In the supplement of paper PMC9112550, “Optimization of the antimicrobial peptide Bac7 by deep mutational scanning” (BMC Biology, 2022):

Test system: Escherichia coli TOP10
Assay: shrunken log2 fold change of peptide-encoding DNA abundance (4.5 h post-induction vs induction); higher = less antimicrobial activity (less host growth inhibition)
Conditions: time post-induction: 4.5 h; library: site-saturation at positions 5, 18, 19, 20
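Note: peptides expressed intracellularly from a pBAD plasmid library in pooled LB shake-flask culture, induced with 0.3% L-arabinose, DNA abundance read by NGS, three biological replicates, DESeq2 with apeglm shrinkage.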

Sequence | shrunken log2 fold change
RRIRARPPRLPRPRPRPACCPRP | 0.658
RRIRARPPRLPRPRPRPACFPRP | 0.736
RRIRARPPRLPRPRPRPADEPRP | 0.678
RRIRARPPRLPRPRPRPADLPRP | 0.729
RRIRARPPRLPRPRPRPAERPRP | 0.301
RRIRARPPRLPRPRPRPAGAPRP | 1.16
RRIRARPPRLPRPRPRPAGKPRP | 0.164
RRIRARPPRLPRPRPRPAGRPRP | 0.723
RRIRARPPRLPRPRPRPAGSPRP | 0.0823
RRIRARPPRLPRPRPRPAGVPRP | 0.45
RRIRARPPRLPRPRPRPAGWPRP | 1.56
RRIRARPPRLPRPRPRPAKKPRP | -0.0777
RRIRARPPRLPRPRPRPALFPRP | 0.61
RRIRARPPRLPRPRPRPAMFPRP | -0.0337
RRIRARPPRLPRPRPRPANHPRP | -0.129
RRIRARPPRLPRPRPRPANNPRP | -0.0617
RRIRARPPRLPRPRPRPAQYPRP | 0.175
RRIRARPPRLPRPRPRPARPPRP | 0.827
RRIRARPPRLPRPRPRPASMPRP | 0.301
RRIRARPPRLPRPRPRPASNPRP | 0.5
RRIRARPPRLPRPRPRPAVEPRP | 0.666
RRIRARPPRLPRPRPRPAVFPRP | 0.679
RRIRARPPRLPRPRPRPAYRPRP | -0.086
RRIRARPPRLPRPRPRPCCDPRP | 0.404
RRIRARPPRLPRPRPRPCCIPRP | 0.13
RRIRARPPRLPRPRPRPCDHPRP | 0.0696
RRIRARPPRLPRPRPRPCEFPRP | 0.168

Sequence | shrunken log2 fold change
RRIRARPPRLPRPRPRPCEQPRP | 0.233
RRIRARPPRLPRPRPRPCETPRP | 0.00546
RRIRARPPRLPRPRPRPCHDPRP | -0.00479
RRIRARPPRLPRPRPRPCHNPRP | -0.161
RRIRARPPRLPRPRPRPCIEPRP | 0.105
RRIRARPPRLPRPRPRPCIMPRP | -0.00141
RRIRARPPRLPRPRPRPCIRPRP | -0.365
RRIRARPPRLPRPRPRPCMQPRP | -0.125
RRIRARPPRLPRPRPRPCNVPRP | -0.0688
RRIRARPPRLPRPRPRPCNYPRP | -0.178
RRIRARPPRLPRPRPRPCQMPRP | -0.0341
RRIRARPPRLPRPRPRPCQRPRP | 0.246
RRIRARPPRLPRPRPRPCQWPRP | -0.0491
RRIRARPPRLPRPRPRPCSCPRP | 0.0516
RRIRARPPRLPRPRPRPCVRPRP | 0.135
RRIRARPPRLPRPRPRPCYDPRP | -0.56
RRIRARPPRLPRPRPRPCYFPRP | -0.324
RRIRARPPRLPRPRPRPCYWPRP | -0.000727
RRIRARPPRLPRPRPRPDAEPRP | 1.63
RRIRARPPRLPRPRPRPDAHPRP | 0.876
RRIRARPPRLPRPRPRPDAMPRP | 1.02
RRIRARPPRLPRPRPRPDEDPRP | 2.09
RRIRARPPRLPRPRPRPDFIPRP | -0.0493
RRIRARPPRLPRPRPRPDIGPRP | 0.0329
RRIRARPPRLPRPRPRPDIKPRP | -0.026
RRIRARPPRLPRPRPRPDKCPRP | -0.0816
RRIRARPPRLPRPRPRPDLEPRP | 0.0744
